From doi:10.1101/2024.07.08.602551, “An avidity-driven mechanism of extracellular BMP regulation by Twisted gastrulation” (bioRxiv, 2024) come the findings set out here.

This assay concerns the target T1, human ΔN-Chordin (human, UniProt Q9H2X0 127-955).
T1 construct: Chordin, human, truncated form missing the N-terminal vWC1 domain but retaining the C-terminal vWC2-4 domains; source: purified, recombinantly expressed; prepared as described previously (Troilo et al., 2014)
T1 sequence (looked up): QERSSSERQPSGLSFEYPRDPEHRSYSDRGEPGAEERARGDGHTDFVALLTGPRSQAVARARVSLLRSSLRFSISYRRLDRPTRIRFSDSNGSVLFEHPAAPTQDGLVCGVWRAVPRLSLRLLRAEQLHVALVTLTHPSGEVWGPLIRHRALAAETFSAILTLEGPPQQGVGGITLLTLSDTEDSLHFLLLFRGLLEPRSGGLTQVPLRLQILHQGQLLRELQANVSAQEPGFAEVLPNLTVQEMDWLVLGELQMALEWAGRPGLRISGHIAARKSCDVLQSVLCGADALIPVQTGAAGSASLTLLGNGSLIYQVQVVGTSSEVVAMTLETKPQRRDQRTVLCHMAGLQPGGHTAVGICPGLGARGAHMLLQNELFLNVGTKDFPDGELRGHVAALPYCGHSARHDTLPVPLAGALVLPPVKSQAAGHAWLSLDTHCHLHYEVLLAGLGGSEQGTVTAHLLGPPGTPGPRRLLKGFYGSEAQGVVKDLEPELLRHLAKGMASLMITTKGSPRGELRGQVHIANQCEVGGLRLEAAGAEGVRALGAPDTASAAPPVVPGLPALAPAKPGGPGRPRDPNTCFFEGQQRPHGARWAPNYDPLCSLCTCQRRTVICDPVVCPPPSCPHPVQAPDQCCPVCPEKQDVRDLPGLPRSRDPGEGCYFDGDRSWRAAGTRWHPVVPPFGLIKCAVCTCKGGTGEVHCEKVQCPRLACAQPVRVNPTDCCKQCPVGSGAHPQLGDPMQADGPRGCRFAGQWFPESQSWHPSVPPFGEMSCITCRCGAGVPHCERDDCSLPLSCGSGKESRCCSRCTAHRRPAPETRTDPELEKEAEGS
The assay is described as follows: SPR; Biacore T200; wildtype or mutant Tsg immobilised on CM5 by amine coupling (350 RU); analyte (ΔN-Chordin or CHRDL2) in a two-fold series, 30 μl/min, 200 s, 300 s dissociation; 20 mM HEPES, 150 mM NaCl, 0.05% Tween20, pH 7.4, 25°C; Langmuir 1:1 fit; triplicate. Particulars: both partners purified.

B1: human Twisted gastrulation (residues Cys26-Phe223) (natural protein, UniProt Q9GZX9 26-223, looked up)
chain: CNKALCASDVSKCLIQELCQCRPGEGNCSCCKECMLCLGALWDECCDCVGMCNPRNYSDTPPTSKSTVEELHEPIPSLFRALTEGDTQLNWNIVSFPVAEELSHHENLVSFLETVNQPHHQNVSVPSNNVHAPYSSDKEHMCTVVYFDDCMSIHQCKISCESMGASKYRWFHNACCECIGPECIDYGSKTVKCMNCMF
notes: Cloned in the vector pHLsec (Addgene_99845) between AgeI and KpnI; secreted; also called Tsg; human Tsg; source: Expi293-F cells, transfected, purified from conditioned media (Strep-Tactin XT, SEC)
Molecule B1 displayed a Kd of 14 nM.

B2: human Twisted gastrulation Leu107Ala (natural protein, UniProt Q9GZX9 26-223, looked up)
chain: CNKALCASDVSKCLIQELCQCRPGEGNCSCCKECMLCLGALWDECCDCVGMCNPRNYSDTPPTSKSTVEELHEPIPSLFRAATEGDTQLNWNIVSFPVAEELSHHENLVSFLETVNQPHHQNVSVPSNNVHAPYSSDKEHMCTVVYFDDCMSIHQCKISCESMGASKYRWFHNACCECIGPECIDYGSKTVKCMNCMF
notes: Twisted gastrulation (Tsg), human, residues Cys26-Phe223, with the point mutation L107A; Point mutant of m1 made by PCR and In-Fusion cloning; also called Tsg^L107A; source: Expi293-F cells, transfected, purified from conditioned media (Strep-Tactin XT, SEC)
Molecule B2 gave a dissociation constant Kd of 60 nM. Against the preceding molecule, the Kd is about 4.3-fold higher.
